Laboratory results reported in US20160185837A1 (Medimmune Limited, priority 2013, published 2016).

Key:
cyno GLP-1r (cGLP-1r) = biological target: T1, cyno GLP-1r (cGLP-1r) (Macaca fascicularis, UniProt F8V479); assay: cAMP assay, cells expressing cyno GLP-1r, 4.2% cyno serum albumin; assay type: cell-based, cynomolgus monkey
T1 construct: expressed in transfected cells
Text: In certain aspects, the assay can also be carried out in medium supplemented with serum albumin that corresponds to the receptor being tested, e.g., human serum albumin for testing cAMP activity at hGIPr or hGLP-1r, rat serum albumin for testing cAMP activity at rGIPr or rGLP-1r, and so on. […] All sample dilutions were made in duplicate.
A frozen cryo-vial of cells expressing the receptor of interest was thawed rapidly in a water-bath, transferred to pre-warmed assay media and spun at 240×g for 5 minutes. Cells were re-suspended in assay buffer at an optimized concentration (e.g., hGLP-1r and hGIPr cells at 0.5×10^5 cells/ml).
To this, 5 μL cell suspension was added and the plates incubated at room temperature for 30 minutes.
cAMP levels were measured using a commercially available cAMP dynamic 2 HTRF kit (Cisbio, Cat #62AM4PEJ), following the two step protocol as per manufacturer's recommendations. In brief; anti-cAMP cryptate (donor fluorophore) and cAMP-d2 (acceptor fluorophore) were made up separately by diluting each 1/20 in conjugate & lysis buffer provided in the kit. […] Data was transformed to % Delta F as described in manufacturer's guidelines and then transformed to percent activation of maximal native agonist response and analysed by 4-parameter logistic fit to determine EC50 values.

PK by Fc Detection = assay: PK by Fc Detection
Protocol: Table printed on a drawing sheet, FIG. 3A-C
Title: PK by Fc Detection
(§1) Circles: IV injection of 1 mg/kg, squares: subcutaneous injection of 1 mg/kg. Pharmacokinetic parameters Cmax, bioavailability (F %) and half-life T1/2 are compared in panel C.
(§2) Circles: IV injection of 1 mg/kg, squares: subcutaneous injection of 1 mg/kg. Pharmacokinetic parameters Cmax, bioavailability (F %) and half life T112 are compared in panel F.
First reader's note: Panel C of FIG. 3A-C; the title 'PK by Fc Detection' is printed over the whole sheet, including plot panels A and B.

PK by Activity = assay: PK by Activity
Protocol: Table printed on a drawing sheet, FIG. 3D-F
as §1, §2
First reader's note: Panel F of FIG. 3D-F; the pharmacokinetic parameters were derived from plasma levels measured by activity (sheet heading 'PK by Activity').

T1 sequence (F8V479 24-463): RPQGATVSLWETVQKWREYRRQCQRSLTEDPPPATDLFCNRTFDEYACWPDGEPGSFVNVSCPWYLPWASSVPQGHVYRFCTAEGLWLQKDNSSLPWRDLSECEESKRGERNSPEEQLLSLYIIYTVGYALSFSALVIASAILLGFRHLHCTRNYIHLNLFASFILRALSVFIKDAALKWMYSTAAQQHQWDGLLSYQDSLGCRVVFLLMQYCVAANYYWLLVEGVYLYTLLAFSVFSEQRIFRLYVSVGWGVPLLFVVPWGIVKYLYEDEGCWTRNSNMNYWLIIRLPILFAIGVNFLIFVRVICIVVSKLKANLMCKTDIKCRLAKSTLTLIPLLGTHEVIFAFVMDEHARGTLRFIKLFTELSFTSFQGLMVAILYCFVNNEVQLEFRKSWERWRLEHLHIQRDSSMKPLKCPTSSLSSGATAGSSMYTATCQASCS

Compound | EC50 (cyno GLP-1r (cGLP-1r)) | Cmax (PK by Fc Detection) | F (%) (PK by Fc Detection) | t½ (PK by Fc Detection) | Cmax (PK by Activity) | F (%) (PK by Activity) | t½ (PK by Activity)
CCCCCCCCCCCCCCCC(=O)N[C@@H](CCC(=O)NCCCC[C@H](NC(=O)[C@H](C)NC(=O)[C@H](C)NC(=O)[C@H](CCC(N)=O)NC(=O)CNC(=O)[C@H](CCC(=O)O)NC(=O)[C@H](CC(C)C)NC(=O)[C@H](Cc1ccc(O)cc1)NC(=O)[C@H](CO)NC(=O)[C@H](CO)NC(=O)[C@@H](NC(=O)[C@H](CC(=O)O)NC(=O)[C@H](CO)NC(=O)[C@@H](NC(=O)[C@H](Cc1ccccc1)NC(=O)[C@@H](NC(=O)CNC(=O)[C@H](CCC(=O)O)NC(=O)[C@H](C)NC(=O)[C@@H](N)Cc1cnc[nH]1)[C@@H](C)O)[C@@H](C)O)C(C)C)C(=O)N[C@@H](CCC(=O)O)C(=O)N[C@@H](Cc1ccccc1)C(=O)N[C@H](C(=O)N[C@@H](C)C(=O)N[C@@H](Cc1c[nH]c2ccccc12)C(=O)N[C@@H](CC(C)C)C(=O)N[C@H](C(=O)N[C@@H](CCCNC(=N)N)C(=O)NCC(=O)N[C@@H](CCCNC(=N)N)C(=O)NCC(=O)O)C(C)C)[C@@H](C)CC)C(=O)O [liraglutide] | 0.025 nM |  |  |  |  |  | 
GLP-1a-Fc (HGEGTFTSDVSSYLEEQAAKEFIAWLVKGR; /note=“Description of Artificial Sequence Synthetic GLP-1 Analog polypeptide”) |  | 8500 ng/mL | 59% | 79 h | 24 nM | 93% | 30 h
